Experimental data: patent US6706266, “Oncostatin M antagonists” (SmithKline Beecham Corporation)
Residue numbers refer to the chain shown, from its start. In names and notes the source's numbering stands. Several values for one entry are separate records, joined by “and”; a condition that tells them apart may be missing. Identical values can stand only once.

T1: gp130-Fc fusion protein (human, UniProt P40189 23-619)
T1 construct: extracellular domain; not shown: Fc fragment of human IgG1
T1 sequence (looked up): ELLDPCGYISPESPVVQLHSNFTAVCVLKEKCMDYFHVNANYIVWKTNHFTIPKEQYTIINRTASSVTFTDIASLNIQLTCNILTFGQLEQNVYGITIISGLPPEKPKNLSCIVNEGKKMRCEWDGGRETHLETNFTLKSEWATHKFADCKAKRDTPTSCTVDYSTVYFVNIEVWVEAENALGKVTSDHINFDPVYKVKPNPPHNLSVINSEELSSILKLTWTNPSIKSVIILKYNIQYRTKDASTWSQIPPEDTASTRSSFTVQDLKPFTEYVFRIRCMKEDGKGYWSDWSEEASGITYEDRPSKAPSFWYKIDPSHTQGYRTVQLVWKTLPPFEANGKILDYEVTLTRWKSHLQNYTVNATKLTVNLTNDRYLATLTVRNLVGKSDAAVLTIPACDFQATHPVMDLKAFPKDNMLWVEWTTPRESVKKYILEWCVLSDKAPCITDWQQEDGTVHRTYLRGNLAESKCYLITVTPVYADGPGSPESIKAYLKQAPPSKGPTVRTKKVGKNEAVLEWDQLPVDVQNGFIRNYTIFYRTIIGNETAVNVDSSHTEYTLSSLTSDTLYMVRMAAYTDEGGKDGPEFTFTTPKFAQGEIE

T2: gp130 on HepG2 B6 cells (UniProt P40189 23-918, limits assumed)
T2 sequence (looked up): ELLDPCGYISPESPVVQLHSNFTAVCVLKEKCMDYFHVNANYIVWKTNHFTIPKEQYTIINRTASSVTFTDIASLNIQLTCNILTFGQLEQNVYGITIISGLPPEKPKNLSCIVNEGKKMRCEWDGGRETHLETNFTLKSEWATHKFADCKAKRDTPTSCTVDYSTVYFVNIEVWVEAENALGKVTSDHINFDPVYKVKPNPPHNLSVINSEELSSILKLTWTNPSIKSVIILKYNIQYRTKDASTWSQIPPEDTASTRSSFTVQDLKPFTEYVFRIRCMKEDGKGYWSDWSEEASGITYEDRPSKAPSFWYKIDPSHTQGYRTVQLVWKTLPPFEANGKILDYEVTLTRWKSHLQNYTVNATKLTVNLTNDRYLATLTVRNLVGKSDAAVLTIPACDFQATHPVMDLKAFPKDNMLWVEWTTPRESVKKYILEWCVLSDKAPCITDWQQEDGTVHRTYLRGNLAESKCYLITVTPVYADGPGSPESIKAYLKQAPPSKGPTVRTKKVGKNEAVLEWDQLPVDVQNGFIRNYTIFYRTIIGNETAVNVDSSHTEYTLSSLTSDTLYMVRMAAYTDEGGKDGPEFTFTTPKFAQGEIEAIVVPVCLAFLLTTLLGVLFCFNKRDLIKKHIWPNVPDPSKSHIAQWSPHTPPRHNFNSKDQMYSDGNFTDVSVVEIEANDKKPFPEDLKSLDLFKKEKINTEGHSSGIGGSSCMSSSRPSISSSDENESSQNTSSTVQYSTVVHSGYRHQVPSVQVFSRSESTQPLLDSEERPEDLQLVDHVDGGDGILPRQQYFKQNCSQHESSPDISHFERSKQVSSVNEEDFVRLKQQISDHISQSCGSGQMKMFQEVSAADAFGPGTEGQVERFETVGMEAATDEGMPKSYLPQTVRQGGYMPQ

B1: OSM-GST mutant D26A (ligand, not shown: a dimerising Fc or GST; large carriers; small tags and cut ends)
chain: AAIGSCSKEYRVLLGQLQKQTDLMQATSRLLDPYIRIQGLDVPKLREHCRERPGAFPSEETLRGLGRRGFLQTLNATLGCVLHRLADLEQRLPKAQDLERSGLNIEDLEKLQMARPNILGLRNNIYCMAQLLDNSDTAEPTKAGRGASQPPTPTPASDAFQRKLEGCRFLHGYHRFMHSVGRVFSKWGESPNRSRR
notes: Alanine mutant of m4; also called (27)D26A; 27 D26A
B2: OSM-GST mutant L119A (ligand, not shown: a dimerising Fc or GST; large carriers; small tags and cut ends)
chain: B1 chain with A26D, L119A
notes: Alanine mutant of m4; also called (19)L119A; 19 L119A
B3: OSM-GST mutant Q16A (ligand)
chain: B1 chain with Q16A, A26D
notes: Alanine mutant of m4; also called (9)Q16A; 9 Q16A; not shown: Its linker is left out
B4: OSM-GST mutant Q20A (ligand)
chain: B1 chain with Q20A, A26D
notes: Alanine mutant of m4; also called (13)Q20A; 13 Q20A; not shown: Its linker is left out
B5: OSM-GST mutant N124A (ligand, not shown: a dimerising Fc or GST; large carriers; small tags and cut ends)
chain: B1 chain with A26D, N124A
notes: Alanine mutant of m4; also called (23)N124A; 23 N124A
B6: OSM-GST mutant L17A (ligand)
chain: B1 chain with L17A, A26D
notes: Alanine mutant of m4; also called (10)L17A; 10 L17A; not shown: Its linker is left out
B7: OSM-GST mutant E9A (ligand, not shown: a dimerising Fc or GST; large carriers; small tags and cut ends)
chain: B1 chain with E9A, A26D
notes: Alanine mutant of m4; also called (3)E9A; 3 E9A
B8: OSM-GST mutant M113A (ligand, not shown: a dimerising Fc or GST; large carriers; small tags and cut ends)
chain: B1 chain with A26D, M113A
notes: Alanine mutant of m4; also called (16)M113; 16 M113A
B9: OSM-GST mutant G120A (ligand, not shown: a dimerising Fc or GST; large carriers; small tags and cut ends)
chain: B1 chain with A26D, G120A
notes: Alanine mutant of m4; also called (20)G120; 20 G120A
B10: OSM-GST mutant P116A (ligand, not shown: a dimerising Fc or GST; large carriers; small tags and cut ends)
chain: B1 chain with A26D, P116A
notes: Alanine mutant of m4; also called (17)P116A; 17 P116A
B11: OSM-GST mutant G15A (ligand)
chain: B1 chain with G15A, A26D
notes: Alanine mutant of m4; also called (8)G15A; 8 G15A; not shown: Its linker is left out
B12: OSM-GST mutant L14A (ligand)
chain: B1 chain with L14A, A26D
notes: Alanine mutant of m4; also called (7)L14A; 7 L14A; not shown: Its linker is left out
B13: OSM-GST mutant N117A (ligand, not shown: a dimerising Fc or GST; large carriers; small tags and cut ends)
chain: B1 chain with A26D, N117A
notes: Alanine mutant of m4; also called (18)N117A; 18 N117A
B14: OSM-GST mutant D22A (ligand, not shown: a dimerising Fc or GST; large carriers; small tags and cut ends)
chain: B1 chain with D22A, A26D
notes: Alanine mutant of m4; also called (15)D22; 15 D22
B15: OSM-GST mutant L13A (ligand)
chain: B1 chain with L13A, A26D
notes: Alanine mutant of m4; also called (6)L13A; 6 L13A; not shown: Its linker is left out
B16: wild type OSM-GST fusion (ligand)
chain: B1 chain with A26D
notes: pGEX-derived fusion; also called wt OSM-GST; GST-hOSM; not shown: glutathione S-transferase (GST) encoded by modified pGEX-3X (Pharmacia), N-terminal, up to the Factor Xa site region sho
B17: OSM-GST mutant N123A (ligand, not shown: a dimerising Fc or GST; large carriers; small tags and cut ends)
chain: B1 chain with A26D, N123A
notes: Alanine mutant of m4; also called (22)N123A; 22 N123A
B18: OSM-GST mutant K19A (ligand)
chain: B1 chain with K19A, A26D
notes: Alanine mutant of m4; also called (12)K19A; 12 K19A; not shown: Its linker is left out
B19: OSM-GST mutant K8A (ligand, not shown: a dimerising Fc or GST; large carriers; small tags and cut ends)
chain: B1 chain with K8A, A26D
notes: Alanine mutant of m4; also called (2)K8A; 2 K8A

Molecular target: T1, gp130-Fc fusion protein
Assay: competition ELISA: OSM-GST titrated against plate-bound wt OSM for gp130-Fc; single experiment
Description: (§1) Plates were washed (×6 in PBS 0.05% tween 20, using Skatron Plate washer), tapped dry and blocked to reduce non-specific binding (200 µl/well, 1% BSA/PBS). Following 1 h incubation (room temperature on a shaking platform) the plates were tapped dry and wild type (wt) or mutant OSM-GST from Example 9b added (50 µl/well, 20–0.002 µg/ml, titrated in 1%BSA/PBS). As a positive control polyclonal anti-human OSM antibody (R&D Systems) was also tested (20–0.02 µg/ml). […] Following a 5 h incubation (room temperature on a shaking platform) the plates were washed (×6) and developed using ELISA Amplification System (Life Technologies) as manufacturer's instructions and the OD measured at 490 nm.

IC50	Binder
0.17 µg/mL and 0.28 µg/mL and 0.481 µg/mL	B1
0.272 µg/mL and 0.266 µg/mL and 0.227 µg/mL	B2
> 10 µg/mL	B3
4.13 µg/mL and 5.57 µg/mL and 4.1 µg/mL and 6.2 µg/mL	B4
1.63 µg/mL and 1.95 µg/mL and 2.38 µg/mL	B5
2.21 µg/mL and 1.9 µg/mL and 1.35 µg/mL	B6
0.208 µg/mL and 0.163 µg/mL and 0.097 µg/mL	B7
0.511 µg/mL and 0.199 µg/mL and 0.252 µg/mL	B8
3.65 µg/mL and 2.68 µg/mL and 2.95 µg/mL	B9
0.232 µg/mL and 0.169 µg/mL and 0.197 µg/mL	B10
0.09 µg/mL and 0.203 µg/mL and 0.171 µg/mL	B11
0.66 µg/mL and 0.47 µg/mL and 0.412 µg/mL	B12
0.983 µg/mL and 0.756 µg/mL and 0.617 µg/mL	B13
0.04 µg/mL and 0.08 µg/mL and 0.092 µg/mL	B14
2.96 µg/mL and 1.99 µg/mL and 2.64 µg/mL	B15

Molecular target: T2, gp130 on HepG2 B6 cells
Assay: cell-based or functional assay

sPAP HepG2 B6 assay: Expt 1 % (EC50 as % of wild type EC50) [%]	sPAP HepG2 B6 assay: Expt 1 EC50 [ng/mL]	sPAP HepG2 B6 assay: Expt 2 % (EC50 as % of wild type EC50) [%]	sPAP HepG2 B6 assay: Expt 2 EC50 [ng/mL]	sPAP HepG2 B6 assay: Mean % of wild type EC50 [%]	Binder
100	24	100	32	100	B16
81	19.5	79	25.5	80	B1
157	37.9	154	49.7	156	B17
115	27.8	72	23	93.5	B2
125	30.2	113	36.2	119	B5
301	72.7	174	56	238	B6
98	23.6	27	8.9	62.5	B7
106	25.6	78	25	92	B8
104	25	47	15	75.5	B10
98	23.6	37	11.9	67.5	B18
66	16	38	12.5	52	B19
87	21	55	17.8	71	B11
81	19.4	77	24.9	79	B12
241	58	132	42.5	186	B13
152	36.7	50	16	101	B14
269	65.7	171	54.9	220	B15

Molecular target: T1, gp130-Fc fusion protein
Assay: competition ELISA: OSM-GST titrated against plate-bound wt OSM for gp130-Fc; mean
Description: as §1

IC50 [µg/mL]	Binder
0.139	B16
0.31	B1
2.96	B17
0.255	B2
5	B4
1.99	B5
1.82	B6
0.156	B7
0.321	B8
3.09	B9
0.199	B10
0.116	B18
0.138	B19
0.155	B11
0.514	B12
0.785	B13
0.071	B14
2.53	B15
